Patent US20240261333A1 (published 2024)

T1: TBL2 (human, UniProt Q9Y4P3 1-447)
T1 construct: also called NP_036585.1
T1 sequence (looked up): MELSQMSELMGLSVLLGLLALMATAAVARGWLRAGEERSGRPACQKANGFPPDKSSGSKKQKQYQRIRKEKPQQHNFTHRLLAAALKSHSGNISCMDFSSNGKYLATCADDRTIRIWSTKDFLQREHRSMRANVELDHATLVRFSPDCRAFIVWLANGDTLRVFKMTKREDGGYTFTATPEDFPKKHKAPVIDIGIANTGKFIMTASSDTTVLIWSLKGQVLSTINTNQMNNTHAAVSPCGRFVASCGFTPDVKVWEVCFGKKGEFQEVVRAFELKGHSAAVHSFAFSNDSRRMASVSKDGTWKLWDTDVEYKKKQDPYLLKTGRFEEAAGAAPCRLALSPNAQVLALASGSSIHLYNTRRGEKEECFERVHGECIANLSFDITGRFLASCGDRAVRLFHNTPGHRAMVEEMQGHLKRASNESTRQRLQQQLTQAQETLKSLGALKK

T2: S100A7 (human, UniProt P31151 2-101)
T2 construct: also called NP_002954.2
T2 sequence (looked up): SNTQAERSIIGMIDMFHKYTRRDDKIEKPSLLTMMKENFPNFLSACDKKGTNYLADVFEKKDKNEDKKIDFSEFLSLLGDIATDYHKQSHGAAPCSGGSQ

T3: NAP1L1 (human, UniProt P55209 2-388)
T3 construct: also called NP_001294853.1 (+1)
T3 sequence (looked up): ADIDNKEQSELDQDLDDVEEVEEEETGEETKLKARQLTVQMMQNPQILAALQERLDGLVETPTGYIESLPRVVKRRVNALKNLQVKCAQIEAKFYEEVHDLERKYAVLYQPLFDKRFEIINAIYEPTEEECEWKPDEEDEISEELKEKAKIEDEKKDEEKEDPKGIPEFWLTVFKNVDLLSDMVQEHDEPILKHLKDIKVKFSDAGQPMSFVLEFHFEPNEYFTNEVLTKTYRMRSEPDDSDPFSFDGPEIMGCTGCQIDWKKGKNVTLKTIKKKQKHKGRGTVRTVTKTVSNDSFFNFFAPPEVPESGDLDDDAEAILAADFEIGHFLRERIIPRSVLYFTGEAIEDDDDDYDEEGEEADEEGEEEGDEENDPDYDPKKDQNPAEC

T4: RBM14 (human, UniProt Q96PK6 1-669)
T4 construct: also called XP_006319.1
T4 sequence (looked up): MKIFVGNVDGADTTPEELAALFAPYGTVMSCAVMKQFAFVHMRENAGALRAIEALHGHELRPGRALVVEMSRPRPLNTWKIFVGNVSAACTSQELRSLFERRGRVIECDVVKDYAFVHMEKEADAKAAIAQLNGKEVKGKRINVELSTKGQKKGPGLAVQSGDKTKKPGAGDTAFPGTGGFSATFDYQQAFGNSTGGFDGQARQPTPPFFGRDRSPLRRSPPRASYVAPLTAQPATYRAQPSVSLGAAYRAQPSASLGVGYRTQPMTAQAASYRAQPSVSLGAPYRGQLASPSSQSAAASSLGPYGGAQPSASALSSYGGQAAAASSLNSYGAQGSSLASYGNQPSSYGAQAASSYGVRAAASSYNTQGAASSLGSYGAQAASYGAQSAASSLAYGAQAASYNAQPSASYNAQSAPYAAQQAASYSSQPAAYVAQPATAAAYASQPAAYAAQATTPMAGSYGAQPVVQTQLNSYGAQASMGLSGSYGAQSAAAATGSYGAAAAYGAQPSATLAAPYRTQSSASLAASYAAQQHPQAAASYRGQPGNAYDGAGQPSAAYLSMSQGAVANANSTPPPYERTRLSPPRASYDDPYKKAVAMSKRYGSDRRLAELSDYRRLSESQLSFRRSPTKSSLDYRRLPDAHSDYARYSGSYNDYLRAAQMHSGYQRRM

B1: N-terminal FLAG tagged B3GNT2 (enzyme, human, UniProt Q9NY97 1-397, looked up)
chain: MSVGRRRIKLLGILMMANVFIYFIMEVSKSSSQEKNGKGEVIIPKEKFWKISTPPEAYWNREQEKLNRQYNPILSMLTNQTGEAGRLSNISHLNYCEPDLRVTSVVTGFNNLPDRFKDFLLYLRCRNYSLLIDQPDKCAKKPFLLLAIKSLTPHFARRQAIRESWGQESNAGNQTVVRVFLLGQTPPEDNHPDLSDMLKFESEKHQDILMWNYRDTFFNLSLKEVLFLRWVSTSCPDTEFVFKGDDDVFVNTHHILNYLNSLSKTKAKDLFIGDVIHNAGPHRDKKLKYYIPEVVYSGLYPPYAGGGGFLYSGHLALRLYHITDQVHLYPIDDVYTGMCLQKLGLVPEKHKGFRTFDIEEKNKNNICSYVDLMLVHSRKPQEMIDIWSQLQSAHLKC
notes: FLAG-tagged ORF overexpressed in cells; pulled down from lysate with mouse anti-FLAG; also called N-FLAG B3GNT2; N-term FLAG; not shown: N-terminal FLAG tag
B2: N-terminal FLAG tagged B3GNT2 (enzyme, human, UniProt Q9NY97 1-397, looked up)
chain: B1 chain
notes: FLAG-tagged ORF overexpressed in A375 cells; pulled down from the lysate with mouse anti-FLAG; also called N-FLAG B3GNT2; N-term FLAG; not shown: N-terminal FLAG tag

Key:
Assay in all cases: co-IP with anti-FLAG, N-FLAG B3GNT2, mass spectrometry
TBL2 = target: T1, TBL2
Experimental: (§1) Cells were plated in 10-cm cell culture dishes and grown to 60-80% confluency. For each condition, two biological replicates were harvested for co-IP. Cells were washed with PBS and 4 mL of lysis buffer (20 mM HEPES, 1% Triton X-100, 150 mM NaCl, 1 mM EDTA, and 10% glycerol) containing protease inhibitor cocktail was added. Cells were scraped and lysate was incubated at 4° C. under rotary agitation for 1 h. Lysate was centrifuged at 14,000×g for 10 min at 4° C. Supernatant was transferred to a new tube and an aliquot was taken as the input. […] For Western blots, 10 μg/mL Chicken Anti-FLAG (Aves labs ET-DY100) and IgY control (R&D Systems AB-101-C) antibodies were biotinylated (Thermo Fisher Scientific 90407) and added to the respective conditions. Lysates with antibodies were incubated at 4° C. under rotary agitation overnight. For each mL of lysate, 50 μL of Pierce Protein A/G Magnetic Beads (Mass spectrometry; Thermo Fisher Scientific 88803) or Pierce Streptavidin Magnetic Beads (Western blot; Thermo Fisher Scientific 88817) was washed twice with lysis buffer. Lysates with antibodies were added to the beads and incubated at 4° C. under rotary agitation for 4 h. Beads were washed with lysis buffer 3 times and resuspended in lysis buffer for storage.
(§2) Magnetic beads were resuspended in 100 mM Tris pH 7.8, reduced, alkylated and digested with trypsin at 37° ° C. overnight. This solution was subjected to solid phase extraction to concentrate the peptides and remove unwanted reagents followed by injection onto a Shimadzu HPLC with fraction collector. Eight fractions were collected and after concentration were injected on a Waters NanoAcquity HPLC equipped with a self-packed Aeris 3 μm C18 analytical column 0.075 mm by 20 cm, (Phenomenex). Peptides were eluted using standard reverse-phase gradients. The effluent from the column was analyzed using a Thermo Orbitrap Elite mass spectrometer (nanospray configuration) operated in a data dependent manner for 54 minutes. The resulting fragmentation spectra were correlated against the known database using Proteome Discover 1.4 (Thermo Fisher Scientific).

S100A7 = target: T2, S100A7
Experimental: as §1, §2

EIF3A = target: T5, EIF3A (human, UniProt Q14152 2-1382)
T5 construct: also called NP_003741.1
Experimental: as §1, §2

P4HA2 = target: T6, P4HA2 (human, UniProt O15460 22-535, limits assumed)
T6 construct: also called NP_001352606.1 (+3)
Experimental: as §1, §2

NAP1L1 = target: T3, NAP1L1
Experimental: as §1, §2

RBM14 = target: T4, RBM14
Experimental: as §1, §2

DDX17 = target: T7, DDX17 (human, UniProt Q92841 1-729, limits assumed)
T7 construct: also called NP_001091974.1
Experimental: as §1, §2

T5 sequence (Q14152 2-1382 limits assumed): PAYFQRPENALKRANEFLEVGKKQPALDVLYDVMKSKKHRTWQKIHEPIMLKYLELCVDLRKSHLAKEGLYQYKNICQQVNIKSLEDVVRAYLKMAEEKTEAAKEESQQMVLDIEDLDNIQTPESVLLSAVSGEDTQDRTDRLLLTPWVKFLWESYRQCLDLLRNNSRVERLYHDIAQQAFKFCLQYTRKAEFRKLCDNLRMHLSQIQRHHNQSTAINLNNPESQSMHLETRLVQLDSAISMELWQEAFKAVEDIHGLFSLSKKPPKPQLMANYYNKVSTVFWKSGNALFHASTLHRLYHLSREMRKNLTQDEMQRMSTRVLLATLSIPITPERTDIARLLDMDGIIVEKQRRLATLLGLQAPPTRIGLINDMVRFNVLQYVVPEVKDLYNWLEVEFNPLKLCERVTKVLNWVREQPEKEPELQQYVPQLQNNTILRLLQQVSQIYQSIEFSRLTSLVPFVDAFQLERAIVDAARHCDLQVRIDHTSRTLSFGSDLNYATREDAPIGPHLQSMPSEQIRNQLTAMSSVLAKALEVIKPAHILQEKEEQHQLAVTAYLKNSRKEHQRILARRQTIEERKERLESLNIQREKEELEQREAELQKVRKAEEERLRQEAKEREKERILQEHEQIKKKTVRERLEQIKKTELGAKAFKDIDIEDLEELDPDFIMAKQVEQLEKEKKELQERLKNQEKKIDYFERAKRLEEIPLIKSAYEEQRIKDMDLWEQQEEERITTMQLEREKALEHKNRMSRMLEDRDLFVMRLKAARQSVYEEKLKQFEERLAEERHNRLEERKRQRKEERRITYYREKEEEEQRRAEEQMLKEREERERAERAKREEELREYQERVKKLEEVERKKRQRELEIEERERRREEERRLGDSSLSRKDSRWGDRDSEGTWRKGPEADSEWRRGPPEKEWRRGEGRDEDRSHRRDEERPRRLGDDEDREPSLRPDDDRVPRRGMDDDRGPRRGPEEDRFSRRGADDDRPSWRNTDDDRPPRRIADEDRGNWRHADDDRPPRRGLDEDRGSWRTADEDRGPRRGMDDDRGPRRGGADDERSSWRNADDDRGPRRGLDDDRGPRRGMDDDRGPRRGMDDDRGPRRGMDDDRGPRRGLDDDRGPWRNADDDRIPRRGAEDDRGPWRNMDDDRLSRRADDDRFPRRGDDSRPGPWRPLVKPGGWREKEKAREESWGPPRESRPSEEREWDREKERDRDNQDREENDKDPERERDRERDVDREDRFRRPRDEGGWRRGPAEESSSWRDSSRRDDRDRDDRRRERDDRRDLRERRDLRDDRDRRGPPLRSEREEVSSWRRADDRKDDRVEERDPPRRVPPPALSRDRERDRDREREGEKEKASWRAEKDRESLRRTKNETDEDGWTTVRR
T7 sequence (Q92841 whole entry): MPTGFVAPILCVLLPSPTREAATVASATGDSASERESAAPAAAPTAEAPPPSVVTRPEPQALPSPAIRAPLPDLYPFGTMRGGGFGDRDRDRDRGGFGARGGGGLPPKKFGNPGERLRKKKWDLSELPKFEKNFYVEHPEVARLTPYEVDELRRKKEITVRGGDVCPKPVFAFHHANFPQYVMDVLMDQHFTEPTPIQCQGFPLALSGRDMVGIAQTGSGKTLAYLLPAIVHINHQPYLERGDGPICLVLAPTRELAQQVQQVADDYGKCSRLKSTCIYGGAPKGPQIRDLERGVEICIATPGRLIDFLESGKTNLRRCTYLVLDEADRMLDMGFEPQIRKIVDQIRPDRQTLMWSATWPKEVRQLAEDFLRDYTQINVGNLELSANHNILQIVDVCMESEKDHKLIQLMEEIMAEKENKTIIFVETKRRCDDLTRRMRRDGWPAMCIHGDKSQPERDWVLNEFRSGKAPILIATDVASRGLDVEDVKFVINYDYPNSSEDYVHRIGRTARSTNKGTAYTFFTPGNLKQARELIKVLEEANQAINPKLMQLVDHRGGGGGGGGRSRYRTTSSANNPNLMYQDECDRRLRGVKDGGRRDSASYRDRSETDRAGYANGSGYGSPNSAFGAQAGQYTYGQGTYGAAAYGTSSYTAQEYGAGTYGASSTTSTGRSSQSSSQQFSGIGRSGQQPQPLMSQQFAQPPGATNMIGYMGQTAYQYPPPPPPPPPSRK
T6 sequence (O15460 22-535 limits assumed): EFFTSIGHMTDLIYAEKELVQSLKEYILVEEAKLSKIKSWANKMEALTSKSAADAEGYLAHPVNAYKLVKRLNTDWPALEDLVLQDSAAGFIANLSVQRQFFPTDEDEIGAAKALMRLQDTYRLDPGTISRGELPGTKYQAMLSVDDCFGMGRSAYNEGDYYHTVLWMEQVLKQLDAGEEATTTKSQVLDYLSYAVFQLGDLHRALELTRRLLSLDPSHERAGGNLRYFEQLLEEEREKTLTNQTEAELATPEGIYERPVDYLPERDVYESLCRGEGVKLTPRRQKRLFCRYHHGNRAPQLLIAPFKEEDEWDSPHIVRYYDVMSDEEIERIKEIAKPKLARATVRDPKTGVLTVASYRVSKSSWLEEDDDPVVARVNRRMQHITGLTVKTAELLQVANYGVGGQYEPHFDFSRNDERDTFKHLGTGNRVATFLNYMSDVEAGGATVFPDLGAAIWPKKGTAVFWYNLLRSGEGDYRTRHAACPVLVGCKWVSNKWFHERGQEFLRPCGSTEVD

Binder | co-IP mass spectrometry count (TBL2) | co-IP mass spectrometry count (S100A7) | co-IP mass spectrometry count (EIF3A) | co-IP/MS count, N-term FLAG (P4HA2) | co-IP/MS count, N-term FLAG (NAP1L1) | co-IP/MS count, N-term FLAG (RBM14) | co-IP/MS count, N-term FLAG (DDX17)
B1 | 0 | 3 | 2 | – | – | – | –
B2 | – | – | – | 0 | 0 | 3 | 23
